“Also recorded” adds a separate entry of the source.
Columns and labels:
NRP2 [1] = target: T1, NRP2 (Homo sapiens, UniProt O60462); assay: SPR binding of known ligands to NRP2; details: known NRP2 ligands
T1 construct: Fc (C); purchased R&D Systems 2215-N2
Description: (§1) Protein-Protein Interaction studies. […] SPR experiments were conducted on a Bio-Rad ProteOn XPR36 Protein Interaction Array instrument. Proteins were immobilized on different channels of ProteOn GLC sensor chips through amine coupling. Analyte proteins were flowed over the immobilized proteins. The sensor chip surface was regenerated between each analyte run to remove interacting proteins. Data was double referenced against an interspot (untreated chip surface) and a blank surface (activated and deactivated for amine coupling).
(§2) A subset of the known ligands of NRP2 appears to compete binding of Fc-HRS(2-60) to NRP2.

[2] = target: T2, NRP2:Fc-HRS(2-60) interaction (Homo sapiens, UniProt O60462); assay: SPR competition of known NRP2 ligands with the NRP2:Fc-HRS(2-60) interaction; assay type: binding
T2 construct: Fc (C); purchased R&D Systems 2215-N2
Description: as §1
(§3) Studies were performed to confirm the binding specificity of Neuropilin 2 (NRP2) to Fc-HRS(2-60) using orthologous methods to those used in the large scale Retrogenix screening (Example 1). In a series of experiments, Fc-HRS(2-60) and related proteins were immobilized on SPR chips, and NRP2 and related proteins were flowed as analytes. Upon confirmation of the NRP2:Fc-HRS(2-60) interaction, the dependence on divalent cations was tested as NRP2 is known to have Ca^2+ binding sites. The effects of previously characterized NRP2 ligands on the NRP2: Fc-HRS(2-60) interaction was also tested to determine if these known ligands have competitive effects on the Fc-HRS(2-60) interaction.
as §2

NRP2 [3] = target: T1, NRP2; assay: SPR protein-protein interaction, human NRP2 over immobilized protein; assay type: binding; details: NRP2 flowed as analyte (50 nM or 20 nM); running buffer with 5 mM CaCl2
Description: as §1, §3

mouse NRP2 = target: T3, mouse NRP2 (Mus musculus, UniProt O35375); assay: SPR protein-protein interaction, mouse NRP2 over immobilized protein; assay type: binding; details: 50 nM mouse NRP2 as analyte
T3 construct: Fc (C); purchased R&D Systems 7988-N2
T3 sequence (O35375 21-931): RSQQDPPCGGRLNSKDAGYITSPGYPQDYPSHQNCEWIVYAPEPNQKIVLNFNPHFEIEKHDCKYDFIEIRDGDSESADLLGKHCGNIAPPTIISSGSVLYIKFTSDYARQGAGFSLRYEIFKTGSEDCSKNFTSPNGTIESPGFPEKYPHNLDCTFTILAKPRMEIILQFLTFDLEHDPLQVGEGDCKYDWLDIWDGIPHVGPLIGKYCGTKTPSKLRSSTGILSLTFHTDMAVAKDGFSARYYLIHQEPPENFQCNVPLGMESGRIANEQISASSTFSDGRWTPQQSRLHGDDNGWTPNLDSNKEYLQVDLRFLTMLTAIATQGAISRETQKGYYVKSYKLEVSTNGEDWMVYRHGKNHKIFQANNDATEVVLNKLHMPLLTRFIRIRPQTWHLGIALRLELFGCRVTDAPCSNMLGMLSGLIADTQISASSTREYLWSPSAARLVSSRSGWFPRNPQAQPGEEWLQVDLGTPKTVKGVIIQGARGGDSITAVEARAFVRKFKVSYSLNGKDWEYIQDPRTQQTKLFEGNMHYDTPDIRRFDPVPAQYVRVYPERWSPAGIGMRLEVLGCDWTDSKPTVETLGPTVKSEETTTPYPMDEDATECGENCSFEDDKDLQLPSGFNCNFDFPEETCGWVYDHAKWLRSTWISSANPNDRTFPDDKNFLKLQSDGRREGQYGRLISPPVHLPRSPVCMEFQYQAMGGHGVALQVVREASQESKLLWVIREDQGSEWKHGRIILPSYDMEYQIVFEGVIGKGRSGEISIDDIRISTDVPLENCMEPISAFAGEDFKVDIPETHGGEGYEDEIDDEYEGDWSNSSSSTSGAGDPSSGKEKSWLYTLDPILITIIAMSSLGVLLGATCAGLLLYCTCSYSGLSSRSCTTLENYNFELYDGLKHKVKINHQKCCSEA
Description: as §1, §3

[4] = target: T4, cell-expressed NRP2 (NRP2a-GFP fusion protein on HEK293T cells) (Homo sapiens, UniProt O60462); assay: Immunofluorescence binding of Fc-HRS (2-60) to HEK293T cells overexpressing NRP2v2-GFP; details: HEK293T cells overexpressing NRP2v2-GFP, GFP Bright cells
T4 construct: host or cells: HEK293T
Description: Reagents: • PE anti-human IgG Fc Antibody, clone HP6017, Biolegend cat 409304 • Mouse Anti-HRS monoclonal antibody (1-96) Clone 1C8, Abnova cat H00003035-M01 • Mouse IgG2a, Isotype control antibody (MOPC-173), Biolegend cat 400223 • Recombinant Human VEGF-C Protein, R&D Systems, cat 2179-VC-025/CF • Formaldehyde, 16%, methanol free, Ultra Pure, Polysciences, cat 18814-10 • Hoechst 33342, Trihydrochloride, Trihydrate, ThermoFisher Scientific, cat H1399 • Fc-HRS (2-60) was prepared as described in PCT application PCT/US2014/029699 • Gibco DMEM, High Glucose, ThermoFisher Scientific, cat 11965092 • PolyJet™ In Vitro DNA Transfection Reagent, SignaGen, cat SL100688 • Neuropilin 2 (NRP2) (NM_003872) Human ORF Clone, Origene, cat RG220706 • Collagen Coating Solution, Cell Applications Cat 125-100 • 1×PBS containing 1% BSA, 0.9 mM CaCl2 and 20 mM glucose • Binding buffer containing 1% normal mouse IgG (sigma cat 18765) and 2.5% (Human Fc Receptor Binding Inhibitor, ebioscience 14-9161-73).
Cell culture and transfection. […]
Immunofluorescence assays on cultured cells. Binding and quantitation of Fc-HRS (2-60) to cell-expressed NRP2 was achieved using immunofluorescence microscopy. […] The Hoechst stain was replaced with 1×PBS and subsequently read on an IN Cell Analyzer 2200. 20× images were acquired and analyzed using In Cell Analyzer 1000 Workstation software. […]

rat NRP2 = target: T5, rat NRP2 (Rattus norvegicus, UniProt O35276); assay: SPR protein-protein interaction, rat NRP2 over immobilized protein; assay type: binding; details: 50 nM rat NRP2 as analyte
T5 construct: Fc (C); His (C); purchased R&D Systems 567-N2
T5 sequence (O35276 23-925): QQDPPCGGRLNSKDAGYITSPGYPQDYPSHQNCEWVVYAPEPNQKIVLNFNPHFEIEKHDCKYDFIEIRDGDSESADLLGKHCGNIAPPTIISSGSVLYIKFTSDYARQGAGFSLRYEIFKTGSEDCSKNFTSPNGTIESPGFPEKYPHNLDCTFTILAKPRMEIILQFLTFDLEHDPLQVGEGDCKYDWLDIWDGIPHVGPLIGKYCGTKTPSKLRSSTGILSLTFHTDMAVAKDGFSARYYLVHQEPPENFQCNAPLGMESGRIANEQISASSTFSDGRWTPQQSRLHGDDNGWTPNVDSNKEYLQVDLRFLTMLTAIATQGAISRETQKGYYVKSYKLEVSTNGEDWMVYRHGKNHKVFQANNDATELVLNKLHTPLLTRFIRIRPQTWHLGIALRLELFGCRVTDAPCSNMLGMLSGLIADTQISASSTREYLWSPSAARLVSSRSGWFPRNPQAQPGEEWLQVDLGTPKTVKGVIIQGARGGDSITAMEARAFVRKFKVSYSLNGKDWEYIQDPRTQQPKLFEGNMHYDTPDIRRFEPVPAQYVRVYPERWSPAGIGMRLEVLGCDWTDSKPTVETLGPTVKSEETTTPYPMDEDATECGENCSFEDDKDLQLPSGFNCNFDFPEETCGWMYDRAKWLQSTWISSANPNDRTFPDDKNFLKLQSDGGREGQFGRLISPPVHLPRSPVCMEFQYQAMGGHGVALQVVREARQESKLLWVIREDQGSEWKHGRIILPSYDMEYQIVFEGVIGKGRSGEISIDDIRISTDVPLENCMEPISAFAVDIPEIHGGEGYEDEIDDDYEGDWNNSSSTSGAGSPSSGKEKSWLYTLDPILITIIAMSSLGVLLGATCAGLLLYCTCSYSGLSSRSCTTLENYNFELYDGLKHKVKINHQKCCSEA
Description: as §1, §3

| Substance | Binding to NRP2 observed by SPR (NRP2 [1]) | effect of ligand on binding of NRP2 to Fc-HRS(2-60) (SPR) ([2]; NRP2 in the presence of the ligand over immobilized Fc-HRS(2-60)) | Competes with Fc-HRS(2-60) for NRP2 binding ([2]; SPR, NRP2 binding to immobilized Fc-HRS(2-60) in presence of ligand) | binding of human NRP2 to immobilized protein (SPR) (NRP2 [3]) | binding of mouse NRP2 to immobilized protein (SPR) (mouse NRP2) | binding to cell-expressed NRP2a (staining intensity of anti-Fc-PE complex) [4] | binding of rat NRP2 to immobilized protein (SPR) (rat NRP2) |
| --- | --- | --- | --- | --- | --- | --- | --- |
| VEGF-A165: commercial protein (Peprotech #100-20) [reference compound] | Yes | reduced or ablated | Yes |  |  |  |  |
| Fc-HRS(2-11): truncated form of Fc-HRS(2-60) with a 49 amino acid deletion at the C-terminus, deleting the majority of the WHEP domain |  |  |  | not a truncated form of Fc-HRS(2-11); also recorded: none of these NRP2 forms bind | not a truncated form of Fc-HRS(2-11); also recorded: none of these NRP2 forms bind | negligible specific binding | not a truncated form of Fc-HRS(2-11); also recorded: none of these NRP2 forms bind |
